These results are taken from US20110263824A1.

The assay deals with human serum protein. As to the kind of experiment: human serum (1:800) adsorbed to TM2 variant-immobilized magnetic beads, HRP-labeled anti-human IgG detection.

TM2 D40NR104E displayed a Non-specific binding to serum protein (A450) of 0.56 A450.
